The assay deals with E. coli RecQ helicase, wild type (E. coli, UniProt P15043 1-609). The assay is described as follows: fluorescence polarisation. For orientation: Polarisation of emitted light reports the rotation of a fluorescent probe.
E. coli RecQ helicase, wild type, sequence (P15043 whole entry): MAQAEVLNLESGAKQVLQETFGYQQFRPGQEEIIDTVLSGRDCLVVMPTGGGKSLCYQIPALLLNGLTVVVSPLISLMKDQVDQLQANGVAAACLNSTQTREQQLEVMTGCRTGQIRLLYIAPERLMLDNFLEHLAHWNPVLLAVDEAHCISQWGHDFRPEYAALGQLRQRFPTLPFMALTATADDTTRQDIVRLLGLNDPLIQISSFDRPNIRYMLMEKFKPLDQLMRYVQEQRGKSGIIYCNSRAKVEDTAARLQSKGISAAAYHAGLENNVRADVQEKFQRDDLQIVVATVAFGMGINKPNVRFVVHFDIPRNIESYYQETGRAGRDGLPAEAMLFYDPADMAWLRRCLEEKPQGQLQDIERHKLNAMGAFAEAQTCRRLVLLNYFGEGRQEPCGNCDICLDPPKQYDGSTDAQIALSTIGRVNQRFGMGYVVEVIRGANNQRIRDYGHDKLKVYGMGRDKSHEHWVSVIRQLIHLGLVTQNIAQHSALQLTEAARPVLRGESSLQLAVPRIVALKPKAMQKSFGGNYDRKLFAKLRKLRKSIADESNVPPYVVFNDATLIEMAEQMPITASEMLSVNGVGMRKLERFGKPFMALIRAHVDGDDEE

B1: N-terminally fluorescein-labeled SSB C-terminal peptide (Flu-MDFDDDIPF) (peptide)
peptide: MDFDDDIPF
modifications: fluorescein on the N-terminus
On to B1, for which the binding result is recorded as “binds”.

The values above are taken from article doi:10.1101/797431 (bioRxiv, 2019).
